This data set has as its system kinases of Table 6 on Myelin Basic Protein (MBP). Kind of data set: Kinase assay using MBP substrate, ProQ Diamond stain (Table 6). The class given is biochemical. As to conditions: kinase printed on MBP-coated slide; 20 uM ATP, 30° C.; ProQ Diamond Microarray Stain; graded Strong/Weak/Negative. The method, then: In this illustrative example, four-well slides were designed with a hydrophobic mask surrounding 4-wells of aldehyde- or epoxy-coated glass (smooth or ES grade; Erie Scientific (Portsmouth, N.H.)). […] Bovine, dephosphorylated, Myelin Basic Protein (MBP) was purchased from Upstate Biotechnology (#13-110). MBP was diluted to 1 mg/ml in PBS, applied to the slide surface, covered with a coverslip, and left overnight at 4° C. to coat the slide with the MBP. Slides were washed 3 times with water and spun dry before printing.
Kinases were purchased from Panvera (Invitrogen, Carlsbad, Calif.), diluted in printing buffer (50 mM Tris pH 7.5, 25% glyercol, 0.05% TritonX-100, 2 mM DTT) and deposited using a GeneMachine OmniGrid100. Slides were stored at −20° C.
Reactions were performed following removal of the slide from the freezer. Reaction buffer (20 mM HEPES pH 7.5, 4 mM MgCl2, 2 mM DTT, 20 uM ATP, 5% DMSO) was added with or without inhibitor, a coverslip applied, and the slide placed at 30° C. for the appropriate reaction time. The slide was washed with water to stop the reaction (3 times) and spun dry. ProQ Diamond Microarray Stain (Invitrogen #P33706) was applied, covered with a coverslip, and the slide was incubated in the dark at room temperature for 30 minutes. The slide was destained and washed three times with water, and spun dry.

B1: EPHA4 (protein)
chain: SRRRSKYSKAKQEADEEKHLNQGVRTYVDPFTYEDPNQAVREFAKEIDASCIKIEKVIGVGEFGEVCSGRLKVPGKREICVAIKTLKAGYTDKQRRDFLSEASIMGQFDHPNIIHLEGVVTKCKPVMIITEYMENGSLDAFLRKNDGRFTVIQLVGMLRGIGSGMKYLSDMSYVHRDLAARNILVNSNLVCKVSDFGMSRVLEDDPEAAYTTRGGKIPIRWTAPEAIAYRKFTSASDVWSYGIVMWEVMSYGERPYWDMSNQDVIKAIEEGYRLPPPMDCPIALHQLMLDCWQKERSDRPKFGQIVNMLDKLIRNPNSLKRTGTESSRPNTALLDPSSPEFSAVVSVGDWLQAIKMDRYKDNFTAAGYTTLEAVVHVNQEDLARIGITAITHQNKILSSVQAMRTQMQQMHGRMVPV
modifications: left off: a dimerising Fc or GST
With B1, the “MBP Kinase Activity” value is given as “Strong”.

B2: MAP3K5(ASK1) (protein)
chain: MSTEADEGITFSVPPFAPSGFCTIPEGGICRRGGAAAVGEGEEHQLPPPPPGSFWNVESAAAPGIGCPAATSSSSATRGRGSSVGGGSRRTTVAYVINEASQGQLVVAESEALQSLREACETVGATLETLHFGKLDFGETTVLDRFYNADIAVVEMSDAFRQPSLFYHLGVRESFSMANNIILYCDTNSDSLQSLKEIICQKNTMCTGNYTFVPYMITPHNKVYCCDSSFMKGLTELMQPNFELLLGPICLPLVDRFIQLLKVAQASSSQYFRESILNDIRKARNLYTGKELAAELARIRQRVDNIEVLTADIVINLLLSYRDIQDYDSIVKLVETLEKLPTFDLASHHHVKFHYAFALNRRNLPGDRAKALDIMIPMVQSEGQVASDMYCLVGRIYKDMFLDSNFTDTESRDHGASWFKKAFESEPTLQSGINYAVLLLAAGHQFESSFELRKVGVKLSSLLGKKGNLEKLQSYWEVGFFLGASVLANDHMRVIQASEKLFKLKTPAWYLKSIVETILIYKHFVKLTTEQPVAKQELVDFWMDFLVEATKTDVTVVRFPVLILEPTKIYQPSYLSINNEVEEKTISIWHVLPDDKKGIHEWNFSASSVRGVSISKFEERCCFLYVLHNSDDFQIYFCTELHCKKFFEMVNTITEEKGRSTEEGDCESDLLEYDYEYDENGDRVVLGKGTYGIVYAGRDLSNQVRIAIKEIPERDSRYSQPLHEEIALHKHLKHKNIVQYLGSFSENGFIKIFMEQVPGGSLSALLRSKWGPLKDNEQTIGFYTKQILEGLKYLHDNQIVHRDIKGDNVLINTYSGVLKISDFGTSKRLAGINPCTETFTGTLQYMAPEIIDKGPRGYGKAADIWSLGCTIIEMATGKPPFYELGEPQAAMFKVGMFKVHPEIPESMSAEAKAFILKCFEPDPDKRACANDLLVDEFLKVSSKKKKTQPKLSALSAGSNEYLRSISLPVPVLVEDTSSSSEYGSVSPDTELKVDPFSFKTRAKSCGERDVKGIRTLFLGIPDENFEDHSAPPSPEEKDSGFFMLRKDSERRATLHRILTEDQDKIVRNLMESLAQGAEEPKLKWEHITTLIASLREFVRSTDRKIIATTLSKLKLELDFDSHGISQVQVVLFGFQDAVNKVLRNHNIKPHWMFALDSIIRKAVQTAITILVPELRPHFSLASESDTADQEDLDVEDDHEEQPSNQTVRRPQAVIEDAVATSGVSTLSSTVSHDSQSAHRSLNVQLGRMKIETNRLLEELVRKEKELQALLHRAIEEKDQEIKHLKLKSQPIEIPELPVFHLNSSGTNTEDSELTDWLRVNGADEDTISRFLAEDYTLLDVLYYVTRDDLKCLRLRGGMLCTLWKAIIDFRNKQT
modifications: left off: a dimerising Fc or GST
Take B2: the “MBP Kinase Activity” value is “Weak”.

B3: MAP3K11(MLK3) (protein)
chain: MEPLKSLFLKSPLGSWNGSGSGGGGGGGGGRPEGSPKAAGYANPVWTALFDYEPSGQDELALRKGDRVEVLSRDAAISGDEGWWAGQVGGQVGIFPSNYVSRGGGPPPCEVASFQELRLEEVIGIGGFGKVYRGSWRGELVAVKAARQDPDEDISVTAESVRQEARLFAMLAHPNIIALKAVCLEEPNLCLVMEYAAGGPLSRALAGRRVPPHVLVNWAVQIARGMHYLHCEALVPVIHRDLKSNNILLLQPIESDDMEHKTLKITDFGLAREWHKTTQMSAAGTYAWMAPEVIKASTFSKGSDVWSFGVLLWELLTGEVPYRGIDCLAVAYGVAVNKLTLPIPSTCPEPFAQLMADCWAQDPHRRPDFASILQQLEALEAQVLREMPRDSFHSMQEGWKREIQGLFDELRAKEKELLSREEELTRAAREQRSQAEQLRRREHLLAQWELEVFERELTLLLQQVDRERPHVRRRRGTFKRSKLRARDGGERISMPLDFKHRITVQASPGLDRRRNVFEVGPGDSPTFPRFRAIQLEPAEPGQAWGRQSPRRLEDSSNGERRACWAWGPSSPKPGEAQNGRRRSRMDEATWYLDSDDSSPLGSPSTPPALNGNPPRPSLEPEEPKRPVPAERGSSSGTPKLIQRALLRGTALLASLGLGRDLQPPGGPGRERGESPTTPPTPTPAPCPTEPPPSPLICFSLKTPDSPPTPAPLLLDLGIPVGQRSAKSPRREEEPRGGTVSPPPGTSRSAPGTPGTPRSPPLGLISRPRPSPLRSRIDPWSFVSAGPRPSPLPSPQPAPRRAPWTLFPDSDPFWDSPPANPFQGGPQDCRAQTKDMGAQAPWVPEAGP
modifications: left off: a dimerising Fc or GST
As to B3, the “MBP Kinase Activity” value is “Negative”.

B4: MAP3K9(MLK1) (protein)
chain: MEPSRALLGCLASAAAAAPPGEDGAGAGAEEEEEEEEEAAAAVGPGELGCDAPLPYWTAVFEYEAAGEDELTLRLGDVVEVLSKDSQVSGDEGWWTGQLNQRVGIFPSNYVTPRSAFSSRCQPGGEDPSCYPPIQLLEIDFAELTLEEIIGIGGFGKVYRAFWIGDEVAVKAARHDPDEDISQTIENVRQEAKLFAMLKHPNIIALRGVCLKEPNLCLVMEFARGGPLNRVLSGKRIPPDILVNWAVQIARGMNYLHDEAIVPIIHRDLKSSNILILQKVENGDLSNKILKITDFGLAREWHRTTKMSAAGTYAWMAPEVIRASMFSKGSDVWSYGVLLWELLTGEVPFRGIDGLAVAYGVAMNKLALPIPSTCPEPFAKLMEDCWNPDPHSRPSFTNILDQLTTIEESGFFEMPKDSFHCLQDNWKHEIQEMFDQLRAKEKELRTWEEELTRAALQQKNQEELLRRREQELAEREIDILERELNIIIHQLCQEKPRVKK
modifications: left off: a dimerising Fc or GST
For B4, the “MBP Kinase Activity” value is given as “Strong”.

B5: MAPK11(p38B) (protein)
chain: MSGPRAGFYRQELNKTVWEVPQRLQGLRPVGSGAYGSVCSAYDARLRQKVAVKKLSRPFQSLIHARRTYRELRLLKHLKHENVIGLLDVFTPATSIEDFSEVYLVTTLMGADLNNIVKCQALSDEHVQFLVYQLLRGLKYIHSAGIIHRDLKPSNVAVNEDCELRILDFGLARQADEEMTGYVATRWYRAPEIMLNWMHYNQTVDIWSVGCIMAELLQGKALFPGSDYIDQLKRIMEVVGTPSPEVLAKISSEHARTYIQSLPPMPQKDLSSIFRGANPLAIDLLGRMLVLDSDQRVSAAEALAHAYFSQYHDPEDEPEAEPYDESVEAKERTLEEWKELTYQEVLSFKPPEPPKPPGSLEIEQ
modifications: left off: small tags and cut ends
Consider B5, for which the “MBP Kinase Activity” value was “Strong”.

B6: MAP4K4(HGK) (protein)
chain: MANDSPAKSLVDIDLSSLRDPAGIFELVEVVGNGTYGQVYKGRHVKTGQLAAIKVMDVTEDEEEEIKLEINMLKKYSHHRNIATYYGAFIKKSPPGHDDQLWLVMEFCGAGSITDLVKNTKGNTLKEDWIAYISREILRGLAHLHIHHVIHRDIKGQNVLLTENAEVKLVDFGVSAQLDRTVGRRNTFIGTPYWMAPEVIACDENPDATYDYRSDLWSCGITAIEMAEGAPPLCDMHPMRALFLIPRNPPPRLKSKKWSKKFFSFIEGCLVKNYMQRPSTEQLLKHPFIRDQPNERQVRIQLKDHIDRTRKKRGEKDETEYEYSGSEE
modifications: left off: a dimerising Fc or GST
Consider B6, for which the “MBP Kinase Activity” value is recorded as “Strong”.

B7: MAP3K2(MEKK2) (protein)
chain: MDDQQALNSIMQDLAVLHKASRPALSLQETRKAKSSSPKKQNDVRVKFEHRGEKRILQFPRPVKLEDLRSKAKIAFGQSMDLHYTNNELVIPLTTQDDLDKAVELLDRSIHMKSLKILLVINGSTQATNLEPLPSLEDLDNTVFGAERKKRLSIIGPTSRDRSSPPPGYIPDELHQVARNGSFTSINSEGEFIPESMDQMLDPLSLSSPENSGSGSCPSLDSPLDGESYPKSRMPRAQSYPDNHQEFSDYDNPIFEKFGKGGTYPRRYHVSYHHQEYNDGRKTFPRARRTQGTSLRSPVSFSPTDHSLSTSSGSSIFTPEYDDSRIRRRGSDIDNPTLTVMDISPPSRSPRAPTNWRLGKLLGQGAFGRVYLCYDVDTGRELAVKQVQFDPDSPETSKEVNALECEIQLLKNLLHERIVQYYGCLRDPQEKTLSIFMEYMPGGSIKDQLKAYGALTENVTRKYTRQILEGVHYLHSNMIVHRDIKGANILRDSTGNVKLGDFGASKRLQTICLSGTGMKSVTGTPYWMSPEVISGEGYGRKADIWSVACTVVEMLTEKPPWAEFEAMAAIFKIATQPTNPKLPPHVSDYTRDFLKRIFVEAKLRPSADELLRHMFVHYH
modifications: left off: a dimerising Fc or GST
For the molecule B7, the “MBP Kinase Activity” value is “Weak”.

B8: MAPK12(p38gamma) (protein)
chain: MSSPPPARSGFYRQEVTKTAWEVRAVYRDLQPVGSGAYGAVCSAVDGRTGAKVAIKKLYRPFQSELFAKRAYRELRLLKHMRHENVIGLLDVFTPDETLDDFTDFYLVMPFMGTDLGKLMKHEKLGEDRIQFLVYQMLKGLRYIHAAGIIHRDLKPGNLAVNEDCELKILDFGLARQADSEMTGYVVTRWYRAPEVILNWMRYTQTVDIWSVGCIMAEMITGKTLFKGSDHLDQLKEIMKVTGTPPAEFVQRLQSDEAKNYMKGLPELEKKDFASILTNASPLAVNLLEKMLVLDAEQRVTAGEALAHPYFESLHDTEDEPQVQKYDDSFDDVDRTLDEWKRVTYKEVLSFKPPRQLGARVSKETPL
modifications: left off: small tags and cut ends
For the molecule B8, the “MBP Kinase Activity” value is “Strong”.

The values are drawn from patent publication US20090099029A1, “Methods and substrates for conducting assays” (Invitrogen Corporation, priority 2005, published 2009).
